{"source": "a protein production outcome set (Wang et al. 2014)", "test": "label from the status in PepcDB records"}
{"sequence": "MTTQTIDSAPHATWFVGASYGGTDDQMPRFLAEGIWENGYDDKLLEVVRSMRPGERIAIKSSYTRKHGLPFDSRGRAVSVMGIKAVGTITENLNDGKRVKVDWAKVEPVREWYFYTHRATIWRVLPGEWMNDALIAFAFDGKPQDVDRFRNEPFWRERYGTTSPEKQRFEWTDFYEAVAEKLLAHADDRTPLIEGIHEIASRVPGLTYLQDKFPDGTSGPLRDICPFTTMGTFNRSMTDANRKTLAGELAKLLGVTVPVPPSFEGIPVLNNQRSWFFAYADKRGAGDIDALWKVFVAASKMVDGDQLDTRDAFIRAYDEATQVWGVAWNLSTGLYWAHPWEFLTLDSQSRHYINKRLGLNVAISGQQGPCDGRAYLKLLDDLRSRFGEDGYPVHSFPDLSLASWMYKDPVDEPVPAGDIGTNAGAEQETEGEVREAFQVAAPIVPYSVEDILKDGCFLERAEIDRLLDRLRTKKNLILQGPPGTGKTWLAKRLAFALMGQKDDSKVRAVQFHPNLSYEDFVRGWRPTGEGKLSLADGVFMEAIKAASKDPSSKFVVVIEEINRGNPAQIFGELLTLLEAGKRTPNEALELCYPDADGKRRPVHIPENLYVVGTMNIADRSLALVDLALRRRFAFVGLEPRLGQVWRDWVVKECAVDPGLVADIERRIAELNDQIAADARLGKQFRIGHSYVTPAHRLEAGDTKKWFLQVVETEIGPLLDEYWFDAPDEAQKAIARLTQGWLEHHHHHH", "values": [{"measurement": "protein production", "result": "not failed"}]}
{"sequence": "DDDIEQLLEFMHQLPAFANMTMSVRRELCSVMIFEVVEQAGAIILEDGQELDSWYVILNGTVEISHPDGKVENLFMGNSFGITPTLDKQYMHGIVRTKVDDCQFVCIAQQDYWRILNHVEK", "values": [{"measurement": "protein production", "result": "not failed"}]}
{"sequence": "MATTLPRITARVDVDTQDLLAKAAALAGMSSINSFVLNAAIEKAKQVIEREQALKLSQADAVLLMEALDNPAVVNAKLKLASERYESKTQ", "values": [{"measurement": "protein production", "result": "failed"}]}
{"sequence": "MRILDYDKVIERILEFIREKGNNGVVIGISGGVDSATVAYLATKALGKEKVLGLIMPYFENKDVEDAKLVAEKLGIGYKVINIKPIVDSFVENLELNLDRKGLGNIMSRTRMIMLYAHANSLGRIVLGTSNRSEFLTGYFTKWGDGASDYAPIINLYKTEVWEIAKRIGVPERIVKKKPSAGLWEGQTDEDELGISYNLLDEILWRMIDLKIGKEEIAKDLGIPLSLVERVEELIKKSEHKRRLPIGPSFEDLIVGP", "values": [{"measurement": "protein production", "result": "not failed"}]}
{"sequence": "MAAPVVVAPAINLQHMDLPEGNEDVAAVLQTSTQRWLNAAEWSILYNNHNLFPESNSFTIPIEVEGLYRVDNRFNQDSNTWRNTSAPSTCKNAINFYNVRIATGLYRFDDDGDIVMDAEVQGGWVLCRKTVRNRGHCGTRLSHLYKPVFDRQFKMLKIHMMEDMIKDGEEKSLDTFVISRQLTTFTDLTGWAFGSSVIVEFKVRLEHLRGKSIPIA", "values": [{"measurement": "protein production", "result": "failed"}]}
{"sequence": "MDNRNIDPYFNPEQFLETQKYKGTVTALIFLLLFFIFLMVAFKKAFFAQANMPNLVMSKQDTAARGTIYSQDNYSLATSQTLFKLGFDTRFLNPDKEDFFIDFLSIYSNIPKKSLKDAINTKGYIILAYDLTPNMAANIRDLNKKFLAFGVFQNFKDAHDKVWQKQGLNIEVSGVSRHYPYQNSLEPIIGYVQKQEEDKLTLTTGKKGVEKSQDHLLKAQQNGIRTGKRDVSFNFIQNHSYTEVERLDGYEVYLSVPLKLQREIETLLDKTKDKLKAKEILVGIINPKSGEILSLASSKRFNPNAIKTSDYESLNLSVAEKVFEPGSTIKPIVYSLLLDKNLINPKERIDLNHGYYQLGKYTIKDDFIPSKKAVVEDILIQSSNVGMIKISKNLNPKDFYNGLLGYGFSQKTGIDLSLEATGKIPPLSAFKREVLKGSVSYGYGLNATFLQLLRAYAVFSNEGKLTTPYLVQRETAPNGDIYIPSPKPTFQVISPKSARKMKETLIKVVRYGTGKNAQFEGLYIGGKTGTARVAKNGSYSAQSYNSSFFGFAEDERQVFTIGVVILGSHGKEEYYASKIAAPIFKEITEILVRYNYLSPSIAIQNALEKNRFKIK", "values": [{"measurement": "protein production", "result": "failed"}]}
{"sequence": "MSFNVFSGSFGQIFKRSRKNSHEYKNENATFELIKSSILVAFSGALRIHLAFLLMYIQSNILVCIAGGLIIYTVYTLDRALGSEEDSVNRKELNGSNKKVGLTVSLLAFMVGTYILAGEEMLPLAFIPFVTGYLYSKGIKIGKFALKLKGGLGVKNIVVGLTWGIFIAGLAGSGCRNLIPVVLIFIFFGVKLFINSTIYDFKDIAGDTLAGINTLPVSLGVRKTRNLLTGMHLFSHLVIGVALIHGALAFEPLIVLYSFVCGLICIQKFTHPEYEEFPSQKMERTLLVDGESTSITGLRIAGYLIA", "values": [{"measurement": "protein production", "result": "failed"}]}
{"sequence": "MTALHDLPGTRLLALFARRELSPGEYYEHLLAHIQRWEPHLNALYRFDPQRVREQAAAATERWRKGQPKGPLDGLPVTIKELIATAGEPIPLGSAATALQPAPCDAPPAARLREAGAIVLAKTTVPDFGMLSSGLSSFHGVTRNPWNLANNTGGSSSGAAAAATAGYGPLHLGTDIGGSVRLPAGWCGLVGFKPSLGRIPIDPYYTGRCAGPMTRCMDDCLLLMRYLAQPDARDATSLPPEVLDWSAEPLSVRGLRVGLQLDPGCGLQPDAEIRAAIEAAARLFEEHGAQLRIVEPLMDRSLLDGLNDFWRARLWSELLLLDETRRARVLPYVHAWAEGGARVSGVDAVRGFNQTFEMRRRAARLFGEIDLLLTPTNQVEAFPADWASPLNDPQRPFEHIVFTVPWNMGEQPALSINCGFTAAGMPIGLQLVAPRFADTWLLRIGKTYEGWRGPIHGWP", "values": [{"measurement": "protein production", "result": "failed"}]}
{"sequence": "MPFLYRLASLLIALLVLPVQAAEMRVALLRTSGVETLDALTVDGGSWVRRVPLSHTAVLIEHHAATLLFDTGLGRDIDAQFRADMPWWAAPLFAYQKVVPARDQLDAAGIRVDRILLSHAHWDHASGLVDFPEVPVWAPYEEIAFSRIATPPAAFPSQFRHGVRWQPYSFDPRPFMGFDESLDLFGDGRLVLVPLPGHTPGSVGLFVTLDSGRRLFFSGDTSWRLEGVEGPRQKFFAGRALVDRDPARTLAQLAKIRLLLRSDPRLSVIPAHDARVQAALGYFPHWLE", "values": [{"measurement": "protein production", "result": "failed"}]}
{"sequence": "MSLQTRKQREDAKREAWKKERQEKKALEAQQDSVSYVQAINALKNGSFVLEADNVVFRNGIMRFVSSNTNYVEVNDGQGIIQTAFTNFVYNWSPNGLGGVTVQGNVNGISMRQDKDGNVYYNYGINGIAVSATVSIVLTGGTNQASVTINPNFSGNTLTMNGYLVPYNEGHHHHHH", "values": [{"measurement": "protein production", "result": "not failed"}]}
{"sequence": "MAKYQSMLVVIDPNQDDQPALRRAVYLHQRIGGRIKAFLPIYDFSYEMTTLLSPDERTAMRQGVIAQRTAWIREQAKFYLESGVPIDVKVVWHNRPFEAIIQEVVSEKHDLLLKMAHQHDKLEAVIFTPTDWHLLRKCPCPVWMVKDQPWPEGGKALVAVNLASEENYHNTLNEKLVRETLSLAEEVNHTEVHLIGAYPVTPINIAIELPDFDPSVYNDAIRGQHLLAMKALRQKFGIDEKFTHVEKGLPEEVIPDLAEHLQAGIVVLGTVGRTGLSAAFLGNTAEQVVDHLRCDLLVLKPEAYQTPVELDDDDDD", "values": [{"measurement": "protein production", "result": "failed"}]}
{"sequence": "MTHLKIFLLLIVCALSVLDGKAQTGIALTDELNGKRIGVIGDSYVRNHKEPFENTWHYKFAKKHGMEYFNYGKNGNSIAYSSPRWGKAMYLRYAEMADSLDYVIVIGGHNDAFKLDSIGGIDNFKDKMEILCKGLVEKYPTAKIFFFTRWNCKNFKGSDSEKVVDAMIEVCGNYSIPIFDCARKGSIYADNDTFRRIYFQKSKNNTDTAHLNSKGHDRFLKVAESFLLQYLEHHHHHH", "values": [{"measurement": "protein production", "result": "failed"}]}
{"sequence": "MPTKTYSEEFKRDAVALYENSDGASLQQIANDLGINRVTLKNWIIKYGSNHNVQGTTPSAAVSEAEQIRQLKKENALQRARTRHPAESCLEHHHHHH", "values": [{"measurement": "protein production", "result": "not failed"}]}
{"sequence": "MRKRIEWIDIAKGSAILAVVIGHTLGPYNGQFFGSLIFAFHMPIFFMLSGYLYRSRPARQECQRGIINLLLPYLATAVVLLVVSAIARLLPNPLLNAYFPSWRQGLIATAYGAGSAVFNPWHWQVQPIGAVWFLLSMFIALQLFNGVMLLTARRHQRWRQAIVRGGVFAIFAILGGWLGHAAYLPWAVNAALLAQLFLYAGYLVKQTALLSRISSAWYLLFTFMWLVSAFQGYFALTVPTSPNLLISVMGGVAGSLCIIRVSDWLSHYPNARPIKWLKRYGQLSLVVLCFHLIDLNVIGIEGWLTNHLITHMGPLVTTIIAISYRIGFVTVAMLAIPHLPGIRACFLPRQYLFRRLQRR", "values": [{"measurement": "protein production", "result": "failed"}]}
